The values below come from the nanobody polyreactivity screen of Harvey et al. (2022).

The series can be described thus: yeast display, Sf9 membrane polyspecificity reagent, FACS + sequencing; frameworks hold sequencing errors. The essentials: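 Polyreactivity labels are assigned by the sorting gate from which each nanobody was recovered. The gates were low and high (top ~1%), set on anti-HA fluorescence for expression and streptavidin fluorescence for reagent binding. Before sorting, galactose-induced (36–48 hours) yeast display cells were stained for 1 hour at 4 °C with 10% biotinylated, detergent-solubilized Sf9 membrane reagent.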
For the sequence “QVQLVESGGGLVQAGGSLRLICAASGFTFGEYAMGWYRKAPGKERELVAGISWSGGGTYYADSVKGRFTISRDTAKNTVYLQMNCLKPEDTAVYYCAKAGYYFFQQWQVDYWGQGTQVTVSS”, the “polyreactivity (PSR sort gate)” value was “low polyreactivity”.

For “QVQLVESGGGLVQAGGSLRLICAASGFTFGGYAMGWYRPAPVKERELVAAINGNGGRTYSADSVKGRFTISRDKAKNTVYLQMISLKPEDTAVYYCYAAYRQHYRYYYWGQGTQVTVSS”, the “polyreactivity (PSR sort gate)” value is “high polyreactivity”.

Consider “QVQLVESGGGLVQAGGSLRLICAASGFTFPPYAMGGYRQAPGKERELVAAITSSGGRTYYAYSVKGRFTISRDNAKNTVYLQMNSLKPEDTAFYYCAAYGRFARMNYWGQGTQVTVSS”, for which the “polyreactivity (PSR sort gate)” value is reported as “high polyreactivity”.

On to “QVQLVESGGGLVQAGGSLRLICAASGFTFPVYARGWYRQAPGKERELVAAISSSGGTTYYADSVKGRFTISRDNAKNTVYLQMISLKPEDTAVYYCNAYYGSTAYGYDYWGQGTQVTVSS”, for which the “polyreactivity (PSR sort gate)” value is “low polyreactivity”.

Turning to “QVQLVESGGGLVQAGGSLRLICAASGFTFRYYAMGWYRQAPGTERELVAAISAGGGSTYYADSVKGRFTISRDNAKNTVYLQMNSLKPEETAVYYCAAAGARPGYDYWGQGTLVTVSS”, the “polyreactivity (PSR sort gate)” value was “high polyreactivity”.

Regarding “QVQLVESGGGLVQAGGSLRLICAASGFTFSTNAMGWYRQAPGKERELVAAITKSGGRTYYADSVKGRFTISRDNAKNTVYLQMNSLTPEDTAVYYCAAEVDRKGFYWYYWGQGTQVTVSS”, the “polyreactivity (PSR sort gate)” value was “high polyreactivity”.

As to “QVQLVESGGGLVQAGGSLRLICAASGFTFTGNAMGWYRQAPGKERELVAAITRGGSTKYADSVKGRITISRDNAMHTVYLQMNSLKPEDTAVYYCAAGVRYYRYYYWGQGTQVTVSS”, the “polyreactivity (PSR sort gate)” value is recorded as “high polyreactivity”.

As for “QVQLVESGGGLVQAGGSLRLICAASGFTFYENAMGWYRQAPGKERELVATISYSGGTTYADSVKGRFTISRDNAKNTVFLQMISLKPEDTAVYYCAADKDGYTYEFDYWGQGTQVTVSS”, the “polyreactivity (PSR sort gate)” value was “low polyreactivity”.

“QVQLVESGGGLVQAGGSLRLICAASGFTFYRYAMGWYRQAPGKERELVASITRSGGSTSYADSVKGRFTISRDNAKNSVYLQMNRLKPEDTAVFYCAAVTTQYLFSVPYYYWGQGTQVTVSS”: the “polyreactivity (PSR sort gate)” value was “high polyreactivity”.

On to “QVQLVESGGGLVQAGGSLRLICAASGGTFQSNAMGWYRQAPGKERELVASITSRGSSTYYADSVKGRFTISRDNAKNTVYLLMNSLKPEDTAVYYCAKGRSWQIYYKGGIKGGYWGQGTQVTVSS”, for which the “polyreactivity (PSR sort gate)” value is “low polyreactivity”.

With “QVQLVESGGGLVQAGGSLRLICAASGGTFYAYAMGWYRQAPGKERELVAAITRSGGRTYYADSVKGRFTISRDNAKNTVSLQMNSLKPEDTAVYYCAADPHHYSGLDYWGQGTQVTVSS”, the “polyreactivity (PSR sort gate)” value is reported as “low polyreactivity”.

As for “QVQLVESGGGLVQAGGSLRLICAASGGTFYINTMGWYRQAPGKERELVATITIVVSTKYADSVKGRFTISRDNAKNTVYLQMNSLKPEDTAVYYCAKDDVYRDSYLVFDGEMDYWGQGTQVTVSS”, the “polyreactivity (PSR sort gate)” value was “low polyreactivity”.

For the sequence “QVQLVESGGGLVQAGGSLRLICAASGGTFYPYTMGGYRQAPGKERELVAAISRRSGRTYYADSVKGRFTISRDNAKNTVYLQMNSLKPEDTAVYYCNADGYTRAFDYWGQGTQVTVSS”, the “polyreactivity (PSR sort gate)” value is reported as “high polyreactivity”.

“QVQLVESGGGLVQAGGSLRLICAASGIIFATYAMGWYRQAPGKERELVAVISNDGSTHYADSVKGRFTISRDNAKNTVYLQMNSLKPEDTAVYYCAARYPYDWRHDYWGQGTQVTVSS”: the “polyreactivity (PSR sort gate)” value was “low polyreactivity”.

With “QVQLVESGGGLVQAGGSLRLICAASGIIFGYYAMGWYRQAPGKERELVAAITSGASTDYADSVKGRFTISRDNAKNTFYLQMNSLKPEDTAVFFCNADTSASTYTFPFDYCGQGTQVTVSS”, the “polyreactivity (PSR sort gate)” value is recorded as “low polyreactivity”.

For the sequence “QVQLVESGGGLVQAGGSLRLICAASGITFDDYDMGWYRQAPGKEREFVSAISFSGSSTYYADSVKGRFTISRDKAKNTVYLQMNSLKPEDTAVYYCNADYVYSGGRYFGKDYWFDYWGQGTQVTVSS”, the “polyreactivity (PSR sort gate)” value is given as “low polyreactivity”.

As to “QVQLVESGGGLVQAGGSLRLICAASGITFDYYVMGWSRQAPGKERELVAVITWSGSTYYADSVKGRFTISRDNAKNTVYLQMNSLKPEDTAVYYCAADWVTYYDFEFYYWGQGTQVTVSS”, the “polyreactivity (PSR sort gate)” value was “high polyreactivity”.

Take “QVQLVESGGGLVQAGGSLRLICAASGITFVYYAMGWYRQAPGKERELVAAISKNSGSTYYADSVKGRFTISRDNAKNTVYLQKNSLNPEDTAVYYCAAEEGYPWVRYNYWGQGTQVTVSS”: the “polyreactivity (PSR sort gate)” value is listed as “high polyreactivity”.

Regarding “QVQLVESGGGLVQAGGSLRLICAASGITFYVYTMGWYRQAPGKERELVAAINGSGGSTNYADSVKGRFTISRDNAKNTVYLQMNSLKPEDTAVYYCAADWSLRLYDYWGQGTQVTVSS”, the “polyreactivity (PSR sort gate)” value was “low polyreactivity”.

“QVQLVESGGGLVQAGGSLRLICAASGITLDGNAMGWYRQAPGKERELVAAITSGGGTNYADSVKGRFTISRDNAKNTVYLQMNSLKPEDTAVYYCAAEGYVGYYDYDYWGQGTQVTVSS”: the “polyreactivity (PSR sort gate)” value is on record as “low polyreactivity”.

Take “QVQLVESGGGLVQAGGSLRLICAASGKTFSDYAMGWYRQAPGKERELVAAISSSGVRTYYADSVKGRFTISRDNAKNTVYLQMNSLKPEDTAVDDCNAGYVRRYYPASGYGYWGQGTHVTVSS”: the “polyreactivity (PSR sort gate)” value was “high polyreactivity”.

As to “QVQLVESGGGLVQAGGSLRLICAASGLIFDYYAMGWYRQSPGKDRELVAAITSSSGITYYADSVKGRFTISRDNAKNTVSLQMNSLKPEDTAVYYCNADTRTTTRRFNPYDYWGQGTQVTVSS”, the “polyreactivity (PSR sort gate)” value is recorded as “low polyreactivity”.

On to “QVQLVESGGGLVQAGGSLRLICAASGLIFKVYAMGWYRQAPGKERELVAAITYSGGSTDYADSVKGRFTISRDNAKNTVYLQMNSLKPEDTAVYYCNVEKVGHVNSYGYDYWGQGTQVTVSS”, for which the “polyreactivity (PSR sort gate)” value was “low polyreactivity”.

In the case of “QVQLVESGGGLVQAGGSLRLICAASGLIFTHNTMGWYRQAPGKERELVAAITTSGGTTYYADSVKGRFTISRDNAKNTVYLQMNSLKPEDTAFYYCAARAPWPKWGYYYWGQGTQVTVSS”, the “polyreactivity (PSR sort gate)” value is “high polyreactivity”.

Regarding “QVQLVESGGGLVQAGGSLRLICAASGLIFVRYAMGWYRQAPGKERELVATITWSGGTTYADSVKGRFTISRDNAKNTVYLQMNSLNPEDTAVYYCAVEWPAWTDSDYPVGGHAFGYWGQGTQVTVSS”, the “polyreactivity (PSR sort gate)” value is “low polyreactivity”.

Regarding “QVQLVESGGGLVQAGGSLRLICAASGLIFWRNAMGWYRQAPGKERELVAAISRTGGNTYYADSVKGRFTISRDNAKNTVYLQMNSLKPEDTAVYYCAKDVGKGYGAYPLDYWGQGTQVTVSS”, the “polyreactivity (PSR sort gate)” value is listed as “low polyreactivity”.

With “QVQLVESGGGLVQAGGSLRLICAASGLIFYDNMGWYRQAPGKERELVAAISSSGGSTSYADSVKGRFTISRDNAKNTVYLQMNSLKPEDTAVYYCAADSYPAYLGFVGFDYWGQGTQVTVSS”, the “polyreactivity (PSR sort gate)” value is on record as “low polyreactivity”.

With “QVQLVESGGGLVQAGGSLRLICAASGLTFASYAMGWYRQAPGKERELVAAISSSGRTYYADSVKGRFTISRDNAKNTVYLQMNSLKPEDTAVYYCATRGLSRYYDYYYWGQGTQVTVSS”, the “polyreactivity (PSR sort gate)” value is “high polyreactivity”.

As to “QVQLVESGGGLVQAGGSLRLICAASGLTFFLYPMGWYRPAPGKERELVAAISSRGGSTYYADSVKGRFTISRDKAKNTVYLQMYSLKPEDTAVYYCADATKGDEDYWGQGTQVTVSS”, the “polyreactivity (PSR sort gate)” value was “high polyreactivity”.

With “QVQLVESGGGLVQAGGSLRLICAASGLTFGDYTMGWYRQAPGKERELVAAISTSGGSTYYADSVKGRFTISRDNAKKTVYLLMNSLKPEDTAVYYCNARRTHTRSHYYYWGQGTQVTVSS”, the “polyreactivity (PSR sort gate)” value is on record as “high polyreactivity”.
